Measured values reported in US20220002407A1.
Blank lines part the entries; values can stand above or below the binder they belong to.

Experiments:
[1] = biological target: CD19 on CD19-positive human tumor cells (Raji, Raji-Luc, NALM6, Reh) (human) (UniProt P15391); assay: cell-based or functional assay
[2] = biological target: CD3 on the membrane of CIK cells (T cells) of a cynomolgus monkey (cynomolgus monkey) (UniProt Q95LI5); assay: flow cytometry on cynomolgus monkey CIK (T) cells
[3] = biological target: CD3 on human T cells (expanded CIK effector cells) (human) (UniProt P07766); assay: flow cytometry on expanded CD3-positive human T cells (CIK)
[4] = biological target: CD19 on CD19-positive human tumor cells (Raji, Raji-Luc, NALM6, Reh) (human) (UniProt P15391); assay: flow cytometry on CD19-positive Raji cells, AF647 goat anti-human IgG detection

CD19 on CD19-positive human tumor cells (Raji, Raji-Luc, NALM6, Reh) (human), sequence (P15391 20-556): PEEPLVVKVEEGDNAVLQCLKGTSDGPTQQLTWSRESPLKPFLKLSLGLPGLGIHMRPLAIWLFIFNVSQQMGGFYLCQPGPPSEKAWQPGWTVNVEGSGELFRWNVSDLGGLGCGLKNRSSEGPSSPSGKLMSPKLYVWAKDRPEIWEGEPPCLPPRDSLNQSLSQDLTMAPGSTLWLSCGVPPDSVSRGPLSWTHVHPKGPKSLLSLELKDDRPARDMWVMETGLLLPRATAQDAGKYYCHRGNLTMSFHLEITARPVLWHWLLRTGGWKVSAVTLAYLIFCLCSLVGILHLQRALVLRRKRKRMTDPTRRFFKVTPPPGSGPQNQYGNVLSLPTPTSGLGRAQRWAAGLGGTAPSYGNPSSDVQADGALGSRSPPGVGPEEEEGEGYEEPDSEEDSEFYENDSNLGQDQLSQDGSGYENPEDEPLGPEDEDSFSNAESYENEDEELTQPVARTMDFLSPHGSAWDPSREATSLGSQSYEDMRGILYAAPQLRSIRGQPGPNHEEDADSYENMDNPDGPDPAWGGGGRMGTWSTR
CD3 on human T cells (expanded CIK effector cells) (human), sequence (P07766 23-207, chain 1 of 3): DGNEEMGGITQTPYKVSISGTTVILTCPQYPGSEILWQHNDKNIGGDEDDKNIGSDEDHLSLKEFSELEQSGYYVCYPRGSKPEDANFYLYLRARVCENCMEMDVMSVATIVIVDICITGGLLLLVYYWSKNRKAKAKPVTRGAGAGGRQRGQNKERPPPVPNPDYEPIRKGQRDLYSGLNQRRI
CD3 on human T cells (expanded CIK effector cells) (human), sequence (P04234 22-171, chain 2 of 3, further chain): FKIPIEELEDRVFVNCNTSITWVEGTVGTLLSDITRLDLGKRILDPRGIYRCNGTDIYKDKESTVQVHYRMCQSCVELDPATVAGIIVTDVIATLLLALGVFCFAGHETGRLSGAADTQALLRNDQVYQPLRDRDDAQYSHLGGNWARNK
CD3 on human T cells (expanded CIK effector cells) (human), sequence (P09693 23-182, chain 3 of 3, further chain): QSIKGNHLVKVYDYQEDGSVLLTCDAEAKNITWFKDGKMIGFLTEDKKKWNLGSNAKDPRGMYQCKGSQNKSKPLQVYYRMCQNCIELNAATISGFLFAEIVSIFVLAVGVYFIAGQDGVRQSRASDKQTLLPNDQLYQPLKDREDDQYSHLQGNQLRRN
CD3 on the membrane of CIK cells (T cells) of a cynomolgus monkey (cynomolgus monkey), sequence (Q95LI5 22-198, chain 1 of 3): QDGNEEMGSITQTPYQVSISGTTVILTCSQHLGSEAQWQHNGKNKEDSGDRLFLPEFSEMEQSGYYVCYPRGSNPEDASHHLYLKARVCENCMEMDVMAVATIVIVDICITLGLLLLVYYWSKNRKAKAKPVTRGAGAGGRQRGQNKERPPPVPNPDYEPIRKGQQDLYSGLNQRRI
CD3 on the membrane of CIK cells (T cells) of a cynomolgus monkey (cynomolgus monkey), sequence (Q95LI8 22-171, chain 2 of 3, further chain): as the sequence (P04234 22-171, chain 2 of 3, further chain) above, with I5V, N15K, I20V, S32T, D33N, I34N, T64A, S74N, V83L, H141R counted along it
CD3 on the membrane of CIK cells (T cells) of a cynomolgus monkey (cynomolgus monkey), sequence (Q95LI7 23-181, chain 3 of 3, further chain): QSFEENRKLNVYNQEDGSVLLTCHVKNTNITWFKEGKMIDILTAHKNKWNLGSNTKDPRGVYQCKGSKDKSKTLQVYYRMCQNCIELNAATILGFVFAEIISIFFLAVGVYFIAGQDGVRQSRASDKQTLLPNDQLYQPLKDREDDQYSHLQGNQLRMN

- EC50 of activation of NFAT-RE luciferase reporter Jurkat T cells in the presence of Raji target cells [1]: 709 pM
- EC50 [2]: 5500 pM
- EC50 [3]: 32400 pM
- EC50 [4]: 2680 pM
B1: bispecific antibody AB23P10 (anti-CD19×CD3) (bispecific antibody)
chain: QVQLQESGPALVKPTQTLTLTCTFSGFSLSTSGMGVGWIRQPPGKALEWLAHIWWDDDKRYNPALKSRLTISKDTSKNQVFLTMTNMDPVDTATYYCARMELWSYYFDYWGQGTLVTVSSGGGGSGGGGSGGGGSENVLTQSPATLSVTPGEKATLSCSASSSVSYMHWYQQKPGQAPRLLIYDTSKLASGIPARFSGSGSGTDHTLTISSLEAEDVAVYYCFQGSVYPFTFGQGTKLEIKGGGGGGSGGGGSGGGGSSSSSKAPPPSEVQLLESGGGLVQPGGSLKLSCAASGFTFNTYAMNWVRQAPGKGLEWVARIRSKYNNYATYYADSVKDRFTISRDDSKNTAYLQMNNLKTEDTAVYYCVRHGNFGNSYVSWFAYWGQGTLVTVSSGGGGSGGGGSGGGGSELVVTQEPSLTVSPGGTVTLTCRSSTGAVTTSNYANWVQQKPGQAPRGLIGGTNKRAPGTPARFSGSLLGGKAALTLSGVQPEDEAEYYCALWYSNLWVFGGGTKLTVLDKTHTCPPCPAPEAAGGPSVFLFPPKPKDQLMISRTPEVTCVVVDVSHEDPEVKFNWYVDGVEVHNAKTKPREEQYASTYRVVSVLTVLHQDWLNGKEYKCKVSNKALPASIEKTISKAKGQPREPQVYTLPPSRDELTKNQVSLTCLVKGFYPSDIAVEWESNGQPENNYKTTPPVLDSDGSFFLYSKLTVDKSRWQQGNVFSCSVLHEALHNHYTQKSLSLSPG
modifications: Homodimer: two identical copies of this chain, joined by covalent (hinge disulfide) bonds; one copy is given.
- EC50 to mediate CIK to kill different tumor cells (NALM6) [1]: 4.4 pM
- EC50 to mediate CIK to kill different tumor cells (Reh) [1]: 1.64 pM
- EC50 to mediate CIK to kill tumor cells (Raji-LUC) [1]: 0.128 pM
- EC50 to mediate CIK to kill tumor cells (Raji-LUC, second row without label) [1]: 0.483 pM
- EC50 to mediate PBMCs to kill tumor cells (Raji-LUC) [1]: 0.946 pM
- EC50 to mediate PBMCs to kill tumor cells (Raji-LUC, second row without label) [1]: 1.25 pM
- EC50 to mediate PBMCs to kill tumor cells (Raji-LUC, third row without label) [1]: 4.18 pM

- EC50 of activation of NFAT-RE luciferase reporter Jurkat T cells in the presence of Raji target cells [1]: 1080 pM
- EC50 [2]: 5500 pM
- EC50 [3]: 15700 pM
- EC50 [4]: 1390 pM
B2: bispecific antibody AB23P7 (anti-CD19×CD3) (bispecific antibody)
chain: QVQLQESGPGLVKPSQTLSLTCTVSGGSISTSGMGVGWIRQHPGKGLEWIGHIWWDDDKRYNPALKSRVTISVDTSKNQFSLKLSSVTAADTAVYYCARMELWSYYFDYWGQGTLVTVSSGGGGSGGGGSGGGGSEIVLTQSPATLSLSPGERATLSCSASSSVSYMHWYQQKPGQAPRLLIYDTSKLASGIPARFSGSGSGTDFTLTISSLEPEDVAVYYCFQGSVYPFTFGQGTKLEIKGGGGGGSGGGGSGGGGSSSSSKAPPPSEVQLLESGGGLVQPGGSLKLSCAASGFTFNTYAMNWVRQAPGKGLEWVARIRSKYNNYATYYADSVKDRFTISRDDSKNTAYLQMNNLKTEDTAVYYCVRHGNFGNSYVSWFAYWGQGTLVTVSSGGGGSGGGGSGGGGSELVVTQEPSLTVSPGGTVTLTCRSSTGAVTTSNYANWVQQKPGQAPRGLIGGTNKRAPGTPARFSGSLLGGKAALTLSGVQPEDEAEYYCALWYSNLWVFGGGTKLTVLDKTHTCPPCPAPEAAGGPSVFLFPPKPKDQLMISRTPEVTCVVVDVSHEDPEVKFNWYVDGVEVHNAKTKPREEQYASTYRVVSVLTVLHQDWLNGKEYKCKVSNKALPASIEKTISKAKGQPREPQVYTLPPSRDELTKNQVSLTCLVKGFYPSDIAVEWESNGQPENNYKTTPPVLDSDGSFFLYSKLTVDKSRWQQGNVFSCSVLHEALHNHYTQKSLSLSPG
modifications: Homodimer: two identical copies of this chain, joined by covalent (hinge disulfide) bonds; one copy is given.
- EC50 to mediate CIK to kill different tumor cells (Reh) [1]: 1.71 pM
- EC50 to mediate CIK to kill tumor cells (Raji-LUC) [1]: 0.699 pM
- EC50 to mediate CIK to kill tumor cells (Raji-LUC, second row without label) [1]: 0.202 pM
- EC50 to mediate PBMCs to kill tumor cells (Raji-LUC) [1]: 1.23 pM
- EC50 to mediate PBMCs to kill tumor cells (Raji-LUC, second row without label) [1]: 1.25 pM

- EC50 of activation of NFAT-RE luciferase reporter Jurkat T cells in the presence of Raji target cells [1]: 1120 pM
- EC50 [3]: 16700 pM
- EC50 [4]: 1920 pM
B3: bispecific antibody AB23P8 (anti-CD19×CD3) (bispecific antibody)
chain: QVTLRESGPALVKPTQTLTLTCTFSGFSLSTSGMGVGWIRQPPGKALEWLAHIWWDDDKRYNPALKSRLTISKDTSKNQVFLTMTNMDPVDTATYYCARMELWSYYFDYWGQGTTVTVSSGGGGSGGGGSGGGGSENVLTQSPATLSVTPGEKATITCRASQSVSYMHWYQQKPGQAPRLLIYDASNRASGVPSRFSGSGSGTDHTLTISSLEAEDAATYYCFQGSVYPFTFGQGTKLEIKGGGGGGSGGGGSGGGGSSSSSKAPPPSEVQLLESGGGLVQPGGSLKLSCAASGFTFNTYAMNWVRQAPGKGLEWVARIRSKYNNYATYYADSVKDRFTISRDDSKNTAYLQMNNLKTEDTAVYYCVRHGNFGNSYVSWFAYWGQGTLVTVSSGGGGSGGGGSGGGGSELVVTQEPSLTVSPGGTVTLTCRSSTGAVTTSNYANWVQQKPGQAPRGLIGGTNKRAPGTPARFSGSLLGGKAALTLSGVQPEDEAEYYCALWYSNLWVFGGGTKLTVLDKTHTCPPCPAPEAAGGPSVFLFPPKPKDQLMISRTPEVTCVVVDVSHEDPEVKFNWYVDGVEVHNAKTKPREEQYASTYRVVSVLTVLHQDWLNGKEYKCKVSNKALPASIEKTISKAKGQPREPQVYTLPPSRDELTKNQVSLTCLVKGFYPSDIAVEWESNGQPENNYKTTPPVLDSDGSFFLYSKLTVDKSRWQQGNVFSCSVLHEALHNHYTQKSLSLSPG
modifications: Homodimer: two identical copies of this chain, joined by covalent (hinge disulfide) bonds; one copy is given.
- EC50 to mediate CIK to kill tumor cells (Raji-LUC) [1]: 0.586 pM
- EC50 to mediate PBMCs to kill tumor cells (Raji-LUC) [1]: 1.02 pM

- EC50 of activation of NFAT-RE luciferase reporter Jurkat T cells in the presence of Raji target cells [1]: 853 pM
- EC50 [3]: 49500 pM
- EC50 [4]: 2600 pM
B4: bispecific antibody AB23P9 (anti-CD19×CD3) (bispecific antibody)
chain: QVQLQESGPGLVKPTQTLSLTCTVSGGSISTSGMGVGWIRQHPGKGLEWIGHIWWDDDKRYNPALKSRVTISVDTSKNQVFLKLSSVTAADTAVYYCARMELWSYYFDYWGQGTTVTVSSGGGGSGGGGSGGGGSEIVLTQSPATLSLSPGERATITCRASQSVSYMHWYQQKPGQAPRLLIYDASNRASGVPSRFSGSGSGTDFTLTISSLEPEDAATYYCFQGSVYPFTFGQGTKLEIKGGGGGGSGGGGSGGGGSSSSSKAPPPSEVQLLESGGGLVQPGGSLKLSCAASGFTFNTYAMNWVRQAPGKGLEWVARIRSKYNNYATYYADSVKDRFTISRDDSKNTAYLQMNNLKTEDTAVYYCVRHGNFGNSYVSWFAYWGQGTLVTVSSGGGGSGGGGSGGGGSELVVTQEPSLTVSPGGTVTLTCRSSTGAVTTSNYANWVQQKPGQAPRGLIGGTNKRAPGTPARFSGSLLGGKAALTLSGVQPEDEAEYYCALWYSNLWVFGGGTKLTVLDKTHTCPPCPAPEAAGGPSVFLFPPKPKDQLMISRTPEVTCVVVDVSHEDPEVKFNWYVDGVEVHNAKTKPREEQYASTYRVVSVLTVLHQDWLNGKEYKCKVSNKALPASIEKTISKAKGQPREPQVYTLPPSRDELTKNQVSLTCLVKGFYPSDIAVEWESNGQPENNYKTTPPVLDSDGSFFLYSKLTVDKSRWQQGNVFSCSVLHEALHNHYTQKSLSLSPG
modifications: Homodimer: two identical copies of this chain, joined by covalent (hinge disulfide) bonds; one copy is given.
- EC50 to mediate CIK to kill tumor cells (Raji-LUC) [1]: 0.148 pM
- EC50 to mediate PBMCs to kill tumor cells (Raji-LUC) [1]: 1.01 pM
